Measurements taken from patent CN114057887A.

Biological target: RBD-His (近岸生物货号:DRA42) (SARS-CoV-2) (UniProt P0DTC2)

Work on “hACE2-Fc融合蛋白 (人ACE2胞外区(ECD)与人IgG1的Fc片段的融合蛋白) (Fc fusion)” yielded a 亲和力 of 0.54 nM.
